Assay results taken from patent US12534531 (MacroGenics, dated 2026).

Legend:
[1] = target: T1, soluble human PD-1 (the extracellular domain of human PD-1 fused to a human Fc Region) (human, UniProt Q15116 25-170); assay: ELISA: shPD-1 hFc coated at 0.5 ug/ml, goat anti-mouse IgG (H+L) detection, RLU
T1 construct: whole entry named; also called shPD-1 hFc; shPD-1-human Fc; not shown: human Fc Region

[2] = target: T2, soluble human PD-1 (the extracellular domain of human PD-1 fused to a His tag) (human, UniProt Q15116 25-170); assay: ELISA: shPD-1 His coated at 0.5 ug/ml, goat anti-mouse IgG (H+L) detection, RLU
T2 construct: also called shPD-1 His; shPD-1-His; not shown: His tag

[3] = target: T3, soluble cynomolgus monkey PD-1 (the extracellular domain of cynomolgus monkey PD-1 fused to a human Fc Region) (cynomolgus monkey, UniProt B0LAJ3 25-170); assay: ELISA: scyno-PD-1-TEV-Fc coated at 1 ug/ml, goat anti-mouse IgG (H+L) detection, RLU
T3 construct: also called scyno-PD1 Fc; scynoPD-1-hFc; not shown: Human Fc Region and any linker or cleavage site between the extracellular domain and the Fc

[4] = target: T4, soluble cynomolgus monkey PD-1 (scyno PD-1 hFc) cleaved to remove Fc portion (cynomolgus monkey, UniProt B0LAJ3 25-170); assay: Biacore, mAb captured on Protein A, analyte scyno PD-1 hFc cleaved of Fc
[5] = target: T2, soluble human PD-1 (the extracellular …); assay: Biacore, mAb captured on Protein A, analyte shPD-1 His
[6] = target: T5, human PD-1 expressed on the surface of cells (NSO cells expressing human PD-1; MNFAT-luc2/PD-1 Jurkat cells) (human, UniProt Q15116 21-288); assay: FACS blocking on NSO cells expressing human PD-1, 1:4 dilutions, MFI; blocked ligand: biotinylated sPD-L1, streptavidin-PE
T5 construct: also called cell surface PD-1; PDCD1 transfected NSO cells expressing PD-1

[7] = target: T5, human PD-1 expressed on the surface of …; assay: FACS blocking on NSO cells expressing human PD-1, 1:4 dilutions, MFI; blocked ligand: biotinylated sPD-L2, streptavidin-PE
[8] = target: T4, soluble cynomolgus monkey PD-1 (scyno …); assay: Biacore, mAb captured on F(ab)2 goat anti-human Fc, analyte scyno PD-1 hFc cleaved of Fc

T3 sequence (B0LAJ3 entry or part of it limits assumed): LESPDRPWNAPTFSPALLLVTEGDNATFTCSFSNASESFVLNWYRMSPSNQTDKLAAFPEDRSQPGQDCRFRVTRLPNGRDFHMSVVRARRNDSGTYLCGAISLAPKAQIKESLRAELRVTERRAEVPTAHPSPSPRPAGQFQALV
T4 sequence (B0LAJ3 entry or part of it limits assumed): as above
T2 sequence (Q15116 25-170): as the sequence (B0LAJ3 entry or part of it limits assumed) above, with E2D, A10P, L19V, A35T, R75Q, A144T counted along it
T1 sequence (Q15116 25-170): as the sequence (B0LAJ3 entry or part of it limits assumed) above, with E2D, A10P, L19V, A35T, R75Q, A144T counted along it
T5 sequence (Q15116 21-288): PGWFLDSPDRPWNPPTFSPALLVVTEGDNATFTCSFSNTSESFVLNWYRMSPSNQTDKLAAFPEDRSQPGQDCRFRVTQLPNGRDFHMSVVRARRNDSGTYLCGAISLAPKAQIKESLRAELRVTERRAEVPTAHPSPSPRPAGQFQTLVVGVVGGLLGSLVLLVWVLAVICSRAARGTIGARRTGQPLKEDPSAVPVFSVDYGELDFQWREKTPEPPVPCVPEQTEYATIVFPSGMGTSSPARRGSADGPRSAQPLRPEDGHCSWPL

| Binder | binding result [1] | binding result [2] | binding result [3] | Kd [4] [nM] | Kd [5] [nM] | other results |
| --- | --- | --- | --- | --- | --- | --- |
| PD-1 mAb 14 (antibody, V domains shown, Murine monoclonal antibody) VH: QVQLQQPGAELVKPGASVKMSCKASGYNFISYWITWVKQRPGQGLQWIGNIYPGTDGTTYNEKFKSKATLTVDTSSSTAYMHLSRLTSEDSAVYYCATGLHWYFDVWGTGTTVTVSS VL: DIVMTQSQKFMSTSVGDRVSVTCKASQSVGTNVAWYQQKPGQSPKALIYSASSRFSGVPDRFTGSGSGTDFTLTISNVQSEDLAEYFCQQYNSYPYTFGGGTKLEIK | binds | binds | binds | – | – | – |
| PD-1 mAb 13 (antibody, V domains shown, Murine monoclonal antibody) VH: EVMLVESGGGLVKPGGSLKLSCAASGFTFSSHTMSWVRQTPEKRLEWVATISGGGSNIYYPDSVKGRFTISRDNAKNTLYLQMSSLRSEDTALYYCARQAYYGNYWYFDVWGTGTTVTVSS VL: DIQMTQSPATQSASLGESVTITCLASQTIGTWLAWYQQKPGKSPQLLIYAATSLADGVPSRFSGSGSGTKFSFKISSLQAEDFVSYYCQQLDSIPWTFGGGTKLEIK | binds | binds | binds | – | – | – |
| PD-1 mAb 15 (antibody, V domains shown, Murine monoclonal antibody) VH: EVMLVESGGGLVKPGGSLKLSCAASGFIFSSYLISWVRQTPEKRLEWVAAISGGGADTYYADSVKGRFTISRDNAKNTLYLQMSSLRSEDTALYYCTRRGTYAMDYWGQGTSVTVSS VL: DIQMTQSPASQSASLGESVTITCLASQTIGTWLAWYQQKPGKSPQLLIYAATSLADGVPSRFSGSGSGTKFSFKISSLQAEDFVNYYCQQLYSIPWTFGGGTKLEIK | binds | – | binds | 40.7 | 2.9 | – |
| PD-1 mAb 11 (antibody, V domains shown, Murine monoclonal antibody) VH: EVQLQQSGTVLARPGASVKMSCKTSGYTFTGYWMHWVKQRPGQGLKWMGAIYPGNSDTHYNQKFKGKAKLTAVTSASTAYMELSSLTNEDSAIYYCTTGTYSYFDVWGTGTTVTVSS VL: DILLTQSPAILSVSPGERVSFSCRASQSIGTSIHWYQHRTNGSPRLLIKYASESISGIPSRFSGSGSGTDFTLSINSVESEDIADYYCQQSNSWLTFGAGTKLELK | binds | – | – | – | – | EC50 (read off the curve) [2]: ~0.2 µg/mL; EC50 (read off the curve) [3]: ~0.2 µg/mL |
| PD-1 mAb 12 (antibody, V domains shown, Murine monoclonal antibody) VH: QGHLQQSGAELVRPGASVTLSCKASGFTFTDYEMHWVKQTPVHGLEWIGTIDPETGGTAYNQKFKGKAILTVDKSSTTTYMELRSLTSEDSAVFYCSRERITTVVEGAYWYFDVWGTGTTVTVSS VL: DVLMTQTPLSLPVSLGDQASISCRSSQNIVHSNGNTYLEWYLQKPGQSPKLLICKVSTRFSGVPDRFSGSGSGTDFTLKISRVEAEDLGVYYCFQGSHVPYTFGGGTKLEIK | binds | binds | binds | – | – | – |
| hPD-1 mAb 15 IgG1 (AA) (antibody, V domains shown) VH: EVQLVESGGGLVRPGGSLRLSCAASGFTFSSYLISWVRQAPGKGLEWVAAISGGGADTYYADSVKGRFTISRDNAKNSLYLQMNSLRAEDTATYYCARRGTYAMDYWGQGTLVTVSS VL: DIQMTQSPSSLSASVGDRVTITCLASQTIGTWLAWYQQKPGKAPKLLIYAATSLADGVPSRFSGSGSGTDFTFTISSLQPEDFATYYCQQLYSIPWTFGQGTKLEIKR | – | – | – | – | – | IC50 (read off the curve) [6]: ~0.04 ug/test; IC50 (read off the curve) [7]: ~0.09 ug/test |
| PD-1 mAb 10 (antibody, V domains shown, Murine monoclonal antibody) VH: EVILVESGGGLVKPGGSLKLSCAASGFTFSNYLMSWVRQTPEKRLEWVASISGGGSNIYYPDSVKGRFTISRDNAKNTLYLQMNSLRSEDTALYYCARQELAFDYWGQGTTLTVSS VL: DIQMTQTTSSLSASLGDRVTISCRTSQDISNFLNWYQQKPDGTIKLLIYYTSRLHSGVPSRFSGSGSGTDYSLTISNLEQEDIATYFCQQGSTLPWTFGGGTKLEII | binds | binds | binds | – | – | – |
| PD-1 mAb A IgG1 (AA) (antibody, V domains shown) VH: QVQLVESGGGVVQPGRSLRLDCKASGITFSNSGMHWVRQAPGKGLEWVAVIWYDGSKRYYADSVKGRFTISRDNSKNTLFLQMNSLRAEDTAVYYCATNDDYWGQGTLVTVSS VL: EIVLTQSPATLSLSPGERATLSCRASQSVSSYLAWYQQKPGQAPRLLIYDASNRATGIPARFSGSGSGTDFTLTISSLEPEDFAVYYCQQSSNWPRTFGQGTKVEIK | – | – | – | – | – | Kd [8]: 5.6 nM |
| PD-1 mAb A (nivolumab), constant region not named where tested (antibody, V domains shown, also called 5C4; BMS-936558) VH: QVQLVESGGGVVQPGRSLRLDCKASGITFSNSGMHWVRQAPGKGLEWVAVIWYDGSKRYYADSVKGRFTISRDNSKNTLFLQMNSLRAEDTAVYYCATNDDYWGQGTLVTVSS VL: EIVLTQSPATLSLSPGERATLSCRASQSVSSYLAWYQQKPGQAPRLLIYDASNRATGIPARFSGSGSGTDFTLTISSLEPEDFAVYYCQQSSNWPRTFGQGTKVEIK | – | – | – | 6.9 | – | – |
| PD-1 mAb 8 (antibody, V domains shown, Murine monoclonal antibody) VH: EGQLQQSGPELVKPGASVKISCKASGYTFTDYYMNWVKQNHGKSLEWIGDINPKNGDTHYNQKFKGEATLTVDKSSTTAYMELRSLTSEDSAVYYCASDFDYWGQGTTLTVSS VL: DVVMTQTPLSLPVGLGDQASISCRSSQTLVYSNGNTYLNWFLQKPGQSPKLLIYKVSNRFSGVPDRFSGSGSGTDFTLKISRVEAEDLGVYFCSQSTHVPFTFGSGTKLEIK | binds | binds | binds | – | – | – |
| hPD-1 mAb 2, constant region not named where tested (antibody, V domains shown, also called humanized PD-1 mAb 2) VH: EVQLVESGGGLVQPGGSLRLSCAASGFVFSSFGMHWVRQAPGKGLEWVAYISSGSMSISYADTVKGRFTISRDNAKNTLYLQMNSLRTEDTALYYCASLSDYFDYWGQGTTVTVSS VL: DVVMTQSPLSLPVTLGQPASISCRSSQSLVHSTGNTYLHWYLQKPGQSPQLLIYRVSNRFSGVPDRFSGSGSGTDFTLKISRVEAEDVGVYYCSQTTHVPWTFGQGTKLEIK | – | – | – | 17 | 5 | – |

The next lines start with results.

| binding result [1] | binding result [2] | binding result [3] | Kd [4] [nM] | Kd [5] [nM] | Binder | other results |
| --- | --- | --- | --- | --- | --- | --- |
| – | – | – | 78.3 | 13.3 | hPD-1 mAb 15, constant region not named where tested (antibody, V domains shown, also called humanized PD-1 mAb 15) VH: EVQLVESGGGLVRPGGSLRLSCAASGFTFSSYLISWVRQAPGKGLEWVAAISGGGADTYYADSVKGRFTISRDNAKNSLYLQMNSLRAEDTATYYCARRGTYAMDYWGQGTLVTVSS VL: DIQMTQSPSSLSASVGDRVTITCLASQTIGTWLAWYQQKPGKAPKLLIYAATSLADGVPSRFSGSGSGTDFTFTISSLQPEDFATYYCQQLYSIPWTFGQGTKLEIK | – |
| – | – | – | 73.3 | 36.1 | hPD-1 mAb 9 (1.1), constant region not named where tested (antibody, V domains shown) VH: EVQLVESGGGLVRPGGSLKLSCAASGFTFSSYLVSWVRQAPGKGLEWVATISGGGGNTYYSDSVKGRFTISRDNAKNSLYLQMNSLRAEDTATYYCARYGFDGAWFAYWGQGTLVTVSS VL: DIQMTQSPSSLSASVGDRVTITCRASENIYSYLAWYQQKPGKAPKLLIYNAKTLAAGVPSRFSGSGSGTDFTLTISSLQPEDFATYYCQHHYAVPWTFGQGTKLEIK | – |
| – | – | – | 1.7 | 0.39 | hPD-1 mAb 7 (1.2), constant region not named where tested (antibody, V domains shown) VH: QVQLVQSGAEVKKPGASVKVSCKASGYSFTSYWMNWVRQAPGQGLEWIGVIHPSDSETWLDQKFKDRVTITVDKSTSTAYMELSSLRSEDTAVYYCAREHYGTSPFAYWGQGTLVTVSS VL: EIVLTQSPATLSLSPGERATLSCRASESVDNYGMSFMNWFQQKPGQPPKLLIHAASNQGSGVPSRFSGSGSGTDFTLTISSLEPEDFAVYFCQQSKEVPYTFGGGTKVEIK | – |
